# Assays:
# Assay type in all cases: cell-based
# [1] = test system: S. aureus 305; experiment: Plate lysis, susceptibility of strains to 2638A (Table 1)
# Experimental: (§1) Purified proteins for each construct were diluted in sterile nickel column elution buffer, and 6 μL of lysostaphin (11 μg) or the constructs (0.2 nmoles or ˜11 μg for the repaired construct 2638A 1-180Mut-486) was spotted onto a freshly spread lawn of S. aureus strain NRS119 (SA LinR #12; linezolid resistant) growing cells that had air dried for 30 min on tryptic soy agar (TSA) plates. L=[…] Lysostaphin (Sigma); Spot 1=11 μg; all other constructs are 0.2 nmoles (˜11 μg for the repaired construct 2638A 1-180Mut-486) […]. The spotted plates were air dried for 10 min in a laminar flow hood and incubated overnight in a 37° C. environment. Scoring of the cleared spots occurred within 20 h of plating the cells.
# (§2) The Plate Lysis assay results (FIG. 3) agree with the turbidity reduction assay. Each of the M23 peptidase dependent or SH3b-truncating constructs showing weak activity on S. aureus strain Newman strain. In addition to the Plate Lysis results in FIG. 3, we have also examined numerous strains with reduced but real lytic activity (Table 1). However, the plate lysis results with the 2638A endolysin constructs are extremely novel in appearance. Plate lysis results are routinely visualized as a discrete cleared spot on a lawn of bacteria after a single overnight of culture. […] In contrast, the 2638A endolysin is unique in that sometimes this cleared zone requires multiple days to appear. […] Thus, there is also a likelihood that the enzyme might work preferentially on late log or stationary phase cells in the plate lysis assay, as the 3 day old culture is likely not growing as quickly as the freshly-plated overnight culture.
# [2] = test system: S. aureus ALC 1342; experiment: as above
# Experimental: as §1, §2
# [3] = test system: S. aureus ANG 133; experiment: as above
# Experimental: as §1, §2
# [4] = test system: S. aureus ANG 144; experiment: as above
# Experimental: as §1, §2
# [5] = test system: S. aureus MN8 Δica; experiment: as above
# Experimental: as §1, §2
# [6] = test system: S. aureus MN8; experiment: as above
# Experimental: as §1, §2
# [7] = test system: S. aureus NRS 385 (MRSA); experiment: as above
# Experimental: as §1, §2
# [8] = test system: S. aureus Newman sm^r; experiment: as above
# Experimental: as §1, §2
# [9] = test system: S. aureus Newman srtA::ermB; experiment: as above
# Experimental: as §1, §2
# [10] = test system: S. aureus Newman ΔdltA; experiment: as above
# Experimental: as §1, §2
# [11] = test system: S. aureus Newman Δica; experiment: as above
# Experimental: as §1, §2
# [12] = test system: S. aureus Newman ΔtagO; experiment: as above
# Experimental: as §1, §2
# [13] = test system: S. aureus Newman; experiment: as above
# Experimental: as §1, §2
# [14] = test system: S. aureus Reynolds (CP-); experiment: as above
# Experimental: as §1, §2
# [15] = test system: S. aureus Reynolds (CP5); experiment: as above
# Experimental: as §1, §2
# [16] = test system: S. aureus Reynolds (CP8); experiment: as above
# Experimental: as §1, §2
# [17] = test system: S. aureus SA113 ΔtagO; experiment: as above
# Experimental: as §1, §2
# [18] = test system: S. aureus SA113; experiment: as above
# Experimental: as §1, §2
# [19] = test system: S. aureus Tanji 19; experiment: as above
# Experimental: as §1, §2
# [20] = test system: S. aureus Tanji 1; experiment: as above
# Experimental: as §1, §2
# [21] = test system: S. aureus Tanji 20; experiment: as above
# Experimental: as §1, §2
# [22] = test system: S. aureus Tanji 26; experiment: as above
# Experimental: as §1, §2
# [23] = test system: S. aureus Tanji 28; experiment: as above
# Experimental: as §1, §2
# [24] = test system: S. aureus Tanji 2; experiment: as above
# Experimental: as §1, §2
# [25] = test system: S. aureus Tanji 31; experiment: as above
# Experimental: as §1, §2
# [26] = test system: S. aureus Tanji 33; experiment: as above
# Experimental: as §1, §2
# [27] = test system: S. aureus Tanji 48; experiment: as above
# Experimental: as §1, §2
# [28] = test system: S. aureus Tanji 49; experiment: as above
# Experimental: as §1, §2
# [29] = test system: S. aureus Tanji 9; experiment: as above
# Experimental: as §1, §2
# [30] = test system: S. epidermidis; experiment: as above
# Experimental: as §1, §2
# [31] = test system: S. hyicus; experiment: as above
# Experimental: as §1, §2
# [32] = test system: S. warneri; experiment: as above
# Experimental: as §1, §2
# [33] = test system: S. xylosus; experiment: as above
# Experimental: as §1, §2
# [34] = test system: S. aureus strain NRS119 (SA LinR #12; linezolid resistant); experiment: Plate lysis assay (FIG. 3); details: lawn on TSA plates, observed over days
# Experimental: as §1
# The Plate Lysis assay results (FIG. 3) agree with the turbidity reduction assay. Each of the M23 peptidase dependent or SH3b-truncating constructs showing weak activity on S. aureus strain Newman strain. In addition to the Plate Lysis results in FIG. 3, we have also examined numerous strains with reduced but real lytic activity (Table 1). However, the plate lysis results with the 2638A endolysin constructs are extremely novel in appearance. Plate lysis results are routinely visualized as a discrete cleared spot on a lawn of bacteria after a single overnight of culture. […]
molecule,measurement,setting,value
"2638A Endolysin: 486 amino acid staphylococcal phage 2638A endolysin (SEQ ID NO:4), C-terminally 6×His-tagged; M23 peptidase, amidase, SH3b domains (protein, C-terminal His6 tag; Mutated Phage 2638a, M23 peptidase, amidase, SH3b domains) MLTAIDYLTKKGWKISSDPRTYDGYPKNYGYRNYHENGINYDEFCGGYHRAFDVYSNETNDVPAVTSGTVIEANDYGNFGGTFVIRDANDNDWIYGHLQRGSMRFVVGDKVNQGDIIGLQGNSNYYDNPMSVHLHLQLRPKDAKKDEKSQVCSGLAMEKYDITNLNAKQDKSKNGSVKELKHIYSNHIKGNKITAPKPSIQGVVIHNDYGSMTPSQYLPWLYARENNGTHVNGWASVYANRNEVLWYHPTDYVEWHCGNQWANANLIGFEVCESYPGRISDKLFLENEEATLKVAADVMKSYGLPVNRNTVRLHNEFFGTSCPHRSWDLHVGKGEPYTTTNINKMKDYFIKRIKHYYDGGKLEVSKAATIKQSDVKQEVKKQEAKQIVKATDWKQNKDGIWYKAEHASFTVTAPEGIITRYKGPWTGHPQAGVLQKGQTIKYDEVQKFDGHVWVSWETFEGETVYMPVRTWDAKTGKVGKLWGEIKLEHHHHHH","Susceptibility to lysis by 2638A, day 1",[1]; day 1,− (− = >100 pmol)
same,"Susceptibility to lysis by 2638A, day 3+",[1]; day 3+,− (− = >100 pmol)
same,"Susceptibility to lysis by 2638A, day 1",[2]; day 1,− (− = >100 pmol)
same,"Susceptibility to lysis by 2638A, day 3+",[2]; day 3+,− (− = >100 pmol)
same,"Susceptibility to lysis by 2638A, day 1",[3]; day 1,− (− = >100 pmol)
same,"Susceptibility to lysis by 2638A, day 3+",[3]; day 3+,− (− = >100 pmol)
same,"Susceptibility to lysis by 2638A, day 1",[4]; day 1,− (− = >100 pmol)
same,"Susceptibility to lysis by 2638A, day 3+",[4]; day 3+,− (− = >100 pmol)
same,"Susceptibility to lysis by 2638A, day 1",[5]; day 1,− (− = >100 pmol)
same,"Susceptibility to lysis by 2638A, day 3+",[5]; day 3+,++ (++ = 10 pmol)
same,"Susceptibility to lysis by 2638A, day 1",[6]; day 1,− (− = >100 pmol)
same,"Susceptibility to lysis by 2638A, day 3+",[6]; day 3+,++ (++ = 10 pmol)
same,"Susceptibility to lysis by 2638A, day 1",[7]; day 1,− (− = >100 pmol)
same,"Susceptibility to lysis by 2638A, day 3+",[7]; day 3+,− (− = >100 pmol)
same,"Susceptibility to lysis by 2638A, day 1",[8]; day 1,− (− = >100 pmol)
same,"Susceptibility to lysis by 2638A, day 3+",[8]; day 3+,− (− = >100 pmol)
same,"Susceptibility to lysis by 2638A, day 1",[9]; day 1,− (− = >100 pmol)
same,"Susceptibility to lysis by 2638A, day 3+",[9]; day 3+,− (− = >100 pmol)
same,"Susceptibility to lysis by 2638A, day 1",[10]; day 1,− (− = >100 pmol)
same,"Susceptibility to lysis by 2638A, day 3+",[10]; day 3+,− (− = >100 pmol)
same,"Susceptibility to lysis by 2638A, day 1",[11]; day 1,− (− = >100 pmol)
same,"Susceptibility to lysis by 2638A, day 3+",[11]; day 3+,− (− = >100 pmol)
same,"Susceptibility to lysis by 2638A, day 1",[12]; day 1,+++ (+++ = 1 pmol)
same,"Susceptibility to lysis by 2638A, day 3+",[12]; day 3+,+++ (+++ = 1 pmol)
same,"Susceptibility to lysis by 2638A, day 1",[13]; day 1,− (− = >100 pmol)
same,"Susceptibility to lysis by 2638A, day 3+",[13]; day 3+,− (− = >100 pmol)
same,"Susceptibility to lysis by 2638A, day 1",[14]; day 1,− (− = >100 pmol)
same,"Susceptibility to lysis by 2638A, day 3+",[14]; day 3+,− (− = >100 pmol)
same,"Susceptibility to lysis by 2638A, day 1",[15]; day 1,− (− = >100 pmol)
same,"Susceptibility to lysis by 2638A, day 3+",[15]; day 3+,− (− = >100 pmol)
same,"Susceptibility to lysis by 2638A, day 1",[16]; day 1,− (− = >100 pmol)
same,"Susceptibility to lysis by 2638A, day 3+",[16]; day 3+,− (− = >100 pmol)
same,"Susceptibility to lysis by 2638A, day 1",[17]; day 1,+++ (+++ = 1 pmol)
same,"Susceptibility to lysis by 2638A, day 3+",[17]; day 3+,+++ (+++ = 1 pmol)
same,"Susceptibility to lysis by 2638A, day 1",[18]; day 1,+ (+ = 100 pmol)
same,"Susceptibility to lysis by 2638A, day 3+",[18]; day 3+,++ (++ = 10 pmol)
same,"Susceptibility to lysis by 2638A, day 1",[19]; day 1,− (− = >100 pmol)
same,"Susceptibility to lysis by 2638A, day 3+",[19]; day 3+,+ (+ = 100 pmol)
same,"Susceptibility to lysis by 2638A, day 1",[20]; day 1,− (− = >100 pmol)
same,"Susceptibility to lysis by 2638A, day 3+",[20]; day 3+,− (− = >100 pmol)
same,"Susceptibility to lysis by 2638A, day 1",[21]; day 1,− (− = >100 pmol)
same,"Susceptibility to lysis by 2638A, day 3+",[21]; day 3+,+ (+ = 100 pmol)
same,"Susceptibility to lysis by 2638A, day 1",[22]; day 1,− (− = >100 pmol)
same,"Susceptibility to lysis by 2638A, day 3+",[22]; day 3+,+ (+ = 100 pmol)
same,"Susceptibility to lysis by 2638A, day 1",[23]; day 1,− (− = >100 pmol)
same,"Susceptibility to lysis by 2638A, day 3+",[23]; day 3+,− (− = >100 pmol)
same,"Susceptibility to lysis by 2638A, day 1",[24]; day 1,− (− = >100 pmol)
same,"Susceptibility to lysis by 2638A, day 3+",[24]; day 3+,+ (+ = 100 pmol)
same,"Susceptibility to lysis by 2638A, day 1",[25]; day 1,− (− = >100 pmol)
same,"Susceptibility to lysis by 2638A, day 3+",[25]; day 3+,− (− = >100 pmol)
same,"Susceptibility to lysis by 2638A, day 1",[26]; day 1,− (− = >100 pmol)
same,"Susceptibility to lysis by 2638A, day 3+",[26]; day 3+,+ (+ = 100 pmol)
same,"Susceptibility to lysis by 2638A, day 1",[27]; day 1,− (− = >100 pmol)
same,"Susceptibility to lysis by 2638A, day 3+",[27]; day 3+,+ (+ = 100 pmol)
same,"Susceptibility to lysis by 2638A, day 1",[28],− (− = >100 pmol)
same,"Susceptibility to lysis by 2638A, day 1",[29]; day 1,− (− = >100 pmol)
same,"Susceptibility to lysis by 2638A, day 3+",[29]; day 3+,− (− = >100 pmol)
same,"Susceptibility to lysis by 2638A, day 1",[30]; day 1,− (− = >100 pmol)
same,"Susceptibility to lysis by 2638A, day 3+",[30]; day 3+,+ (+ = 100 pmol)
same,"Susceptibility to lysis by 2638A, day 1",[31]; day 1,− (− = >100 pmol)
same,"Susceptibility to lysis by 2638A, day 3+",[31]; day 3+,− (− = >100 pmol)
same,"Susceptibility to lysis by 2638A, day 1",[32]; day 1,− (− = >100 pmol)
same,"Susceptibility to lysis by 2638A, day 3+",[32]; day 3+,− (− = >100 pmol)
same,"Susceptibility to lysis by 2638A, day 1",[33]; day 1,− (− = >100 pmol)
same,"Susceptibility to lysis by 2638A, day 3+",[33]; day 3+,− (− = >100 pmol)
same,appearance and persistence of the cleared zone in plate lysis,[34],"very broad, ill-defined region of clearing that grows with time, up to four days"
